# According to patent US20230340160A1 (published 2023):
# T1: human CEA expressed on tumor cells (human, UniProt P06731 35-702)
# T1 sequence (looked up): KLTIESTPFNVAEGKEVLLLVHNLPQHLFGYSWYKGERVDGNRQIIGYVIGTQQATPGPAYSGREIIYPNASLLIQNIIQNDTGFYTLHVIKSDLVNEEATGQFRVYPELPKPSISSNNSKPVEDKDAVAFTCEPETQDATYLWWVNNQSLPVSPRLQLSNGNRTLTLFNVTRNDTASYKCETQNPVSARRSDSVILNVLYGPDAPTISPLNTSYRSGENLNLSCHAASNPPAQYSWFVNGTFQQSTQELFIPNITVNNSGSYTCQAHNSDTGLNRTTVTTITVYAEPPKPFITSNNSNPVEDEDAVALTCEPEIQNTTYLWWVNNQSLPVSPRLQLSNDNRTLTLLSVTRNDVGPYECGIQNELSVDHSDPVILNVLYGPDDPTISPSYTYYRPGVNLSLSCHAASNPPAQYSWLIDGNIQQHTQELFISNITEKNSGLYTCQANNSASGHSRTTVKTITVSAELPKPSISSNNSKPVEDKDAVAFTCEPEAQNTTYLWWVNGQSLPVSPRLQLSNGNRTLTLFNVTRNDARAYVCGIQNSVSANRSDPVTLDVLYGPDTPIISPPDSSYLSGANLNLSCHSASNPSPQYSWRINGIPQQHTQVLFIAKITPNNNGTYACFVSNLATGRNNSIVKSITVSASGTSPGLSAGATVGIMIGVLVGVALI
# Key:
# [1] = biological target: T2, human CD3 expressed on Jurkat cells (human, UniProt P07766 23-207); test: flow cytometry on Jurkat cells
# T2 construct: CD3 complex on Jurkat cells (ATCC TIB-152); also called huCD3
# Description: (§1) Binding of the different bispecific constructs to CD3 on Jurkat cells (ATCC #TIB-152), and the respective tumor antigen on target cells, was determined by FACS. Briefly, cells were harvested, counted and checked for viability. 0.15 - 0.2 million cells per well (in PBS containing 0.1% BSA; 90 µl) were plated in a round-bottom 96-well plate and incubated with the indicated concentration of the bispecific constructs and corresponding IgG controls (10 µl) for 30 min at 4° C. For a better comparison, all constructs and IgG controls were normalized to same molarity. After the incubation, cells were centrifuged (5 min, 350 × g), washed with 150 µl PBS containing 0.1% BSA, resuspended and incubated for further 30 min at 4° C. with 12 µl/well of a FITC-or PE-conjugated secondary antibody. Bound constructs were detected using a FACSCantoII (Software FACS Diva). The “(scFv)₂” molecule was detected using a FITC-conjugated anti-His antibody (Lucerna, #RHIS-45F-Z). For all other molecules, a FITC- or PE-conjugated AffiniPure F(ab′)2 Fragment goat anti-human IgG Fcγ Fragment Specific (Jackson Immuno Research Lab # 109-096-098 / working solution 1:20, or #109-116-170 / working solution 1:80, respectively) was used. Cells were washed by addition of 120 µl/well PBS containing 0.1% BSA and centrifugation at 350 × g for 5 min. A second washing step was performed with 150 µl/well PBS containing 0.1% BSA. Unless otherwise indicated, cells were fixed with 100 µl/well fixation buffer (BD #554655) for 15 min at 4° C. in the dark, centrifuged for 6 min at 400 × g and kept in 200 µl/well PBS containing 0.1% BSA until the samples were measured with FACS CantoII. EC50 values were calculated using the GraphPad Prism software.
# (§2) As a control, the equivalent maximum concentration of the corresponding IgGs and the background staining due to the labeled 2ndary antibody (goat anti-human FITC-conjugated AffiniPure F(ab′)2 Fragment, Fcγ Fragment-specific, Jackson Immuno Research Lab # 109-096-098) were assessed as well.
# [2] = biological target: T1, human CEA expressed on tumor cells; test: cell-based or functional assay
# [3] = biological target: T1, human CEA expressed on tumor cells; test: flow cytometry on LS-174T cells
# Description: Binding of the different bispecific constructs to CD3 on Jurkat cells (ATCC #TIB-152), and the respective tumor antigen on target cells, was determined by FACS. Briefly, cells were harvested, counted and checked for viability. 0.15 - 0.2 million cells per well (in PBS containing 0.1% BSA; 90 µl) were plated in a round-bottom 96-well plate and incubated with the indicated concentration of the bispecific constructs and corresponding IgG controls (10 µl) for 30 min at 4° C. For a better comparison, all constructs and IgG controls were normalized to same molarity. […] Bound constructs were detected using a FACSCantoII (Software FACS Diva). The “(scFv)₂” molecule was detected using a FITC-conjugated anti-His antibody (Lucerna, #RHIS-45F-Z). […] Unless otherwise indicated, cells were fixed with 100 µl/well fixation buffer (BD #554655) for 15 min at 4° C. in the dark, centrifuged for 6 min at 400 × g and kept in 200 µl/well PBS containing 0.1% BSA until the samples were measured with FACS CantoII. EC50 values were calculated using the GraphPad Prism software.
# as §2
# [4] = biological target: T2, human CD3 expressed on Jurkat cells; test: flow cytometry on Jurkat cells, 50 nM
# Description: as §1
# (§3) In a first experiment, different bispecific constructs targeting human MCSP and human CD3 were analyzed by flow cytometry for binding to human CD3 expressed on Jurkat, human T cell leukaemia cells, or to human MCSP on Colo-38 human melanoma cells.
# [5] = biological target: T3, human MCSP expressed on tumor cells (human, UniProt Q6UVK1 30-2322); test: flow cytometry on Colo-38 cells, 50 nM
# T3 construct: whole, on cells; On Colo-38, WM266-4, MV-3 or MDA-MB-435 cells, as named in each row; also called huMCSP; Melanoma-associated Chondroitin Sulfate Proteoglycan
# Description: as §1, §3
# [6] = biological target: T4, Human EGFR (immobilized on CM5 sensor chip) (human, UniProt P00533 25-645, limits assumed); test: SPR; construct (200 nM) captured on immobilized human EGFR, then CD3 fusion injected (FIG. 18A)
# T4 construct: 8000 RU immobilized by amine coupling; also called Epidermal Growth Factor Receptor
# Description: Analysis of simultaneous binding of the T-cell bispecific constructs to the tumor antigen and the human CD3ε was performed by direct coupling of 1650 resonance units (RU) of biotinylated D3 domain of MCSP on a sensor chip SA using the standard coupling procedure. Human EGFR was immobilized using standard amino coupling procedure. 8000 RU were immobilized on a CM5 sensor chip at pH 5.5.
# Different T-cell bispecific constructs were captured for 60 s at 200 nM. Human CD3γ(G₄S)₅CD3ε-AcTev-Fc(knob)-Avi/Fc(hole) was subsequently passed at a concentration of 2000 nM and a flow rate of 40 µl/min for 60 s. Bulk refractive index differences were corrected for by subtracting the response obtained on a reference flow cell where the recombinant CD3ε was flown over a surface with immobilized D3 domain of MCSP or EGFR without captured T-cell bispecific constructs.
# T2 sequence (P07766 23-207 limits assumed): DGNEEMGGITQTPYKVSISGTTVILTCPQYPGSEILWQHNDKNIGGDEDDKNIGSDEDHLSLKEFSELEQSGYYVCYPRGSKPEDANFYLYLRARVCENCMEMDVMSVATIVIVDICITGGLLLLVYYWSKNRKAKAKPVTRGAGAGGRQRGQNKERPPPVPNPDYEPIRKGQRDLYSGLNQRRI
# T3 sequence (Q6UVK1 30-2322): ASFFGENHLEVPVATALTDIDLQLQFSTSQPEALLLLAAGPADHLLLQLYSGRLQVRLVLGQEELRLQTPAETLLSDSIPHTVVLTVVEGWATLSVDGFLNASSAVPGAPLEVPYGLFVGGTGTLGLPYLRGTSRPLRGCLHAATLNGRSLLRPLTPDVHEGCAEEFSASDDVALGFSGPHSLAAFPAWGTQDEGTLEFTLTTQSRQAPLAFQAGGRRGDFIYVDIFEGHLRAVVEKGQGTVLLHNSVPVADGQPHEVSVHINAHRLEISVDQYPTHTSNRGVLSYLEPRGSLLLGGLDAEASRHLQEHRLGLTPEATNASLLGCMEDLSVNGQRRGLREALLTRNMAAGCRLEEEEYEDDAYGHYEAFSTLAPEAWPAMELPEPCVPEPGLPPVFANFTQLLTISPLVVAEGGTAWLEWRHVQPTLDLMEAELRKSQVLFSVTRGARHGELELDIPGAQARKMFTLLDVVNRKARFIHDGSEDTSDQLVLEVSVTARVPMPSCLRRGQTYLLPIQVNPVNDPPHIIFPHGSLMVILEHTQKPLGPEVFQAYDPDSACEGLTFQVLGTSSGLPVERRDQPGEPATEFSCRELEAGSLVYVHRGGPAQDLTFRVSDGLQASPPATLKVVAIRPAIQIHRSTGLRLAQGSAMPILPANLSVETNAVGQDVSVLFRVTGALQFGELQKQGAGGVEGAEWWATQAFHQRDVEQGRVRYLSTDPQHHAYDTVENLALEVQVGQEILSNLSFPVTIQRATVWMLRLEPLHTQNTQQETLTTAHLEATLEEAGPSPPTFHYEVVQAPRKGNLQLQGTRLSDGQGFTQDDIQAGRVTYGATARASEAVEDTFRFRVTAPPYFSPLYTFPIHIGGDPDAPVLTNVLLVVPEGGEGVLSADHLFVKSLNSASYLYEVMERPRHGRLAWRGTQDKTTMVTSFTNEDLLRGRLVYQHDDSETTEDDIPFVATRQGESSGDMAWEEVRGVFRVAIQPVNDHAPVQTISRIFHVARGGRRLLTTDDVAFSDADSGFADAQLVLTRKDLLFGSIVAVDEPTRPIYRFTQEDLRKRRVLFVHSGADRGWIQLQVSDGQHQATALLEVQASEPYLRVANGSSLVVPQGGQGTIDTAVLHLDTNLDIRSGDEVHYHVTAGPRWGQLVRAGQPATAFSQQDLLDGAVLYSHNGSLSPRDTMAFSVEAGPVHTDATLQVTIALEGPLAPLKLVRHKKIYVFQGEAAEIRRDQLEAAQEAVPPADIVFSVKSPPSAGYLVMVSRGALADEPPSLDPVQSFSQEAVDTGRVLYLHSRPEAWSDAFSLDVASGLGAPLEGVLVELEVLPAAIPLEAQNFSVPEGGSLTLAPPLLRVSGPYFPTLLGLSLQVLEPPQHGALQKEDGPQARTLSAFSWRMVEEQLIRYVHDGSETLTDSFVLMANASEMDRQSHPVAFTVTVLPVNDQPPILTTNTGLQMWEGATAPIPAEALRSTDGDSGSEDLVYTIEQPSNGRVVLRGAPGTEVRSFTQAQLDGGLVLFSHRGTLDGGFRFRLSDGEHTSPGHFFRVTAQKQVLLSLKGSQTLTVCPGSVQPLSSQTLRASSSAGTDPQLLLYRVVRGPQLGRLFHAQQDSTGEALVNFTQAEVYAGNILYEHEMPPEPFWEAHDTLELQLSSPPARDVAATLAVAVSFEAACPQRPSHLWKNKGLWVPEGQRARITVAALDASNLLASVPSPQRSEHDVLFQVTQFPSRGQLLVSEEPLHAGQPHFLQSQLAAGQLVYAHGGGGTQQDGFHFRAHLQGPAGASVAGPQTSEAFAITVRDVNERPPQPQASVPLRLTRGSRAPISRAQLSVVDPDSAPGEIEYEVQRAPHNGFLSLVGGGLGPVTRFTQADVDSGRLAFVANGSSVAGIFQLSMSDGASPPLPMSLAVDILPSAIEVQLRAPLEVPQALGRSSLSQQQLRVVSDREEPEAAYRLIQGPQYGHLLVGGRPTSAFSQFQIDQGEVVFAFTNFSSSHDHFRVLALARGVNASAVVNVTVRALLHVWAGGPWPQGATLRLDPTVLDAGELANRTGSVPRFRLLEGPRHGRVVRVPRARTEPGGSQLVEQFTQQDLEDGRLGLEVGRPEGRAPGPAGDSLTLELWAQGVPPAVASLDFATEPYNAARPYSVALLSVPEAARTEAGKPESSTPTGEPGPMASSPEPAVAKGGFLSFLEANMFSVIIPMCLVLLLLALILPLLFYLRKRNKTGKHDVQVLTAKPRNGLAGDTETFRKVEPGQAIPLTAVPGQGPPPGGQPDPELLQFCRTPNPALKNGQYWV
Binder,EC50 [1] [nM],"EC50 of killing (LDH release) of LS-174T cells, human PBMCs, E:T 10:1, 28 h [2] [nM]","EC50 of killing (LDH release) of MKN-45 cells, human PBMCs, E:T 10:1, 28 h [2] [nM]",EC50 [3] [nM],binding result [4],binding result [5],binding result [6]
"CEA/CD3 “2+1 IgG Crossfab, inverted (CL/CH1)”; CL/CH1 exchange (CH1A1A/V9) (bispecific antibody, 66 is the DNA of 65; also called CL/CH1-exchange construct) heavy 1: not shown heavy 2: QVQLVQSGAEVKKPGASVKVSCKASGYTFTEFGMNWVRQAPGQGLEWMGWINTKTGEATYVEEFKGRVTFTTDTSTSTAYMELRSLRSDDTAVYYCARWDFAYYVEAMDYWGQGTTVTVSSASTKGPSVFPLAPSSKSTSGGTAALGCLVKDYFPEPVTVSWNSGALTSGVHTFPAVLQSSGLYSLSSVVTVPSSSLGTQTYICNVNHKPSNTKVDKKVEPKSCDKTHTCPPCPAPEAAGGPSVFLFPPKPKDTLMISRTPEVTCVVVDVSHEDPEVKFNWYVDGVEVHNAKTKPREEQYNSTYRVVSVLTVLHQDWLNGKEYKCKVSNKALGAPIEKTISKAKGQPREPQVCTLPPSRDELTKNQVSLSCAVKGFYPSDIAVEWESNGQPENNYKTTPPVLDSDGSFFLVSKLTVDKSRWQQGNVFSCSVMHEALHNHYTQKSLSLSPGK light 1: DIQMTQSPSSLSASVGDRVTITCKASAAVGTYVAWYQQKPGKAPKLLIYSASYRKRGVPSRFSGSGSGTDFTLTISSLQPEDFATYYCHQYYTYPLFTFGQGTKLEIKRTVAAPSVFIFPPSDEQLKSGTASVVCLLNNFYPREAKVQWKVDNALQSGNSQESVTEQDSKDSTYSLSSTLTLSKADYEKHKVYACEVTHQGLSSPVTKSFNRGEC light 2: DIQMTQSPSSLSASVGDRVTITCRASQDIRNYLNWYQQKPGKAPKLLIYYTSRLESGVPSRFSGSGSGTDYTLTISSLQPEDFATYYCQQGNTLPWTFGQGTKVEIKSSASTKGPSVFPLAPSSKSTSGGTAALGCLVKDYFPEPVTVSWNSGALTSGVHTFPAVLQSSGLYSLSSVVTVPSSSLGTQTYICNVNHKPSNTKVDKKVEPKSC",3.9,0.673,0.115,6.7,–,–,–
"CEA/CD3 “2+1 IgG Crossfab, inverted (VL/VH)”; VL/VH exchange (CH1A1A/V9) (bispecific antibody, also called VL/VH-exchange construct) heavy 1: not shown heavy 2: QVQLVQSGAEVKKPGASVKVSCKASGYTFTEFGMNWVRQAPGQGLEWMGWINTKTGEATYVEEFKGRVTFTTDTSTSTAYMELRSLRSDDTAVYYCARWDFAYYVEAMDYWGQGTTVTVSSASTKGPSVFPLAPSSKSTSGGTAALGCLVKDYFPEPVTVSWNSGALTSGVHTFPAVLQSSGLYSLSSVVTVPSSSLGTQTYICNVNHKPSNTKVDKKVEPKSCDKTHTCPPCPAPEAAGGPSVFLFPPKPKDTLMISRTPEVTCVVVDVSHEDPEVKFNWYVDGVEVHNAKTKPREEQYNSTYRVVSVLTVLHQDWLNGKEYKCKVSNKALGAPIEKTISKAKGQPREPQVCTLPPSRDELTKNQVSLSCAVKGFYPSDIAVEWESNGQPENNYKTTPPVLDSDGSFFLVSKLTVDKSRWQQGNVFSCSVMHEALHNHYTQKSLSLSPGK light 1: DIQMTQSPSSLSASVGDRVTITCKASAAVGTYVAWYQQKPGKAPKLLIYSASYRKRGVPSRFSGSGSGTDFTLTISSLQPEDFATYYCHQYYTYPLFTFGQGTKLEIKRTVAAPSVFIFPPSDEQLKSGTASVVCLLNNFYPREAKVQWKVDNALQSGNSQESVTEQDSKDSTYSLSSTLTLSKADYEKHKVYACEVTHQGLSSPVTKSFNRGEC light 2: EVQLVESGGGLVQPGGSLRLSCAASGYSFTGYTMNWVRQAPGKGLEWVALINPYKGVSTYNQKFKDRFTISVDKSKNTAYLQMNSLRAEDTAVYYCARSGYYGDSDWYFDVWGQGTLVTVSSASVAAPSVFIFPPSDEQLKSGTASVVCLLNNFYPREAKVQWKVDNALQSGNSQESVTEQDSKDSTYSLSSTLTLSKADYEKHKVYACEVTHQGLSSPVTKSFNRGEC",4.6,0.955,0.243,9.3,–,–,–
"“1+1 IgG scFab, one armed inverted” (anti-MCSP/anti-huCD3) (bispecific antibody) heavy 1: DIVLTQSPSSLSASLGDRVTISCSASQGIRNYLNWYQQRPDGTVKLLIYYTSSLHSGVPSRFSGSGSGTDYSLTISNLEPEDIATYYCQQYSKLPWTFGGGTKLEIKRTVAAPSVFIFPPSDEQLKSGTASVVCLLNNFYPREAKVQWKVDNALQSGNSQESVTEQDSKDSTYSLSSTLTLSKADYEKHKVYACEVTHQGLSSPVTKSFNRGECSGGGSGGGSEGGGSEGGGSEGGGSEGGGSGGGSGEVQLQESGPGLVKPSQSLSLTCSVTGYSITSGYYWNWIRQFPGNKLEWMGYITYDGSNNYNPSLKNRISITRDTSKNQFFLKLNSVTTEDTATYYCADFDYWGQGTTLTVSSASTKGPSVFPLAPSSKSTSGGTAALGCLVKDYFPEPVTVSWNSGALTSGVHTFPAVLQSSGLYSLSSVVTVPSSSLGTQTYICNVNHKPSNTKVDKKVEPKSCDGGGGSGGGGSGAQDKTHTCPPCPAPEAAGGPSVFLFPPKPKDTLMISRTPEVTCVVVDVSHEDPEVKFNWYVDGVEVHNAKTKPREEQYNSTYRVVSVLTVLHQDWLNGKEYKCKVSNKALPAPIEKTISKAKGQPREPQVCTLPPSRDELTKNQVSLSCAVKGFYPSDIAVEWESNGQPENNYKTTPPVLDSDGSFFLVSKLTVDKSRWQQGNVFSCSVMHEALHNHYTQKSLSLSPGK heavy 2: not shown light: not shown",–,–,–,–,binds,binds,–
"“2+1 IgG scFab, P329G LALA” (anti-EGFR/anti-huCD3) (bispecific antibody) heavy 1: not shown heavy 2: QVQLVQSGAEVKKPGSSVKVSCKASGFTFTDYKIHWVRQAPGQGLEWMGYFNPNSGYSTYAQKFQGRVTITADKSTSTAYMELSSLRSEDTAVYYCARLSPGGYYVMDAWGQGTTVTVSSASTKGPSVFPLAPSSKSTSGGTAALGCLVKDYFPEPVTVSWNSGALTSGVHTFPAVLQSSGLYSLSSVVTVPSSSLGTQTYICNVNHKPSNTKVDKKVEPKSCDKTHTCPPCPAPEAAGGPSVFLFPPKPKDTLMISRTPEVTCVVVDVSHEDPEVKFNWYVDGVEVHNAKTKPREEQYNSTYRVVSVLTVLHQDWLNGKEYKCKVSNKALGAPIEKTISKAKGQPREPQVCTLPPSRDELTKNQVSLSCAVKGFYPSDIAVEWESNGQPENNYKTTPPVLDSDGSFFLVSKLTVDKSRWQQGNVFSCSVMHEALHNHYTQKSLSLSPGK light: DIQMTQSPSSLSASVGDRVTITCRASQGINNYLNWYQQKPGKAPKRLIYNTNNLQTGVPSRFSGSGSGTEFTLTISSLQPEDFATYYCLQHNSFPTFGQGTKLEIKRTVAAPSVFIFPPSDEQLKSGTASVVCLLNNFYPREAKVQWKVDNALQSGNSQESVTEQDSKDSTYSLSSTLTLSKADYEKHKVYACEVTHQGLSSPVTKSFNRGEC",–,–,–,–,–,–,binds
